Data set [1] deals with HeLa Kyoto. The data set can be described thus: solubility in G1/S (NP-40 vs SDS abundance) (log2 ratio); higher = more soluble. The settings on record: cell cycle stage: G1/S.
Data set [2] has as its system HeLa Kyoto. The data set can be described thus: melting temperature (median over replicates), in situ; higher = more thermally stable.
Data set [3] has as its system HeLa Kyoto. Put plainly: solubility change mitosis vs G1/S (difference of NP-40 vs SDS log2 ratios) (log2 ratio difference); higher = more soluble in mitosis.
Data set [4] relates to HeLa Kyoto. Put plainly: thermal stability score vs G1/S (z-score of summed log2 fold changes over temperatures); higher = more thermally stable than in G1/S.
Setting [5] is: cell cycle stage: early G1 (4.5 h after nocodazole release).
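For melting temperature (median over replicates), in situ in this document: HeLa Kyoto cells synchronized by double thymidine or nocodazole block, proteins quantified by TMT10plex mass spectrometry, three independent biological replicates.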
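For solubility change mitosis vs G1/S (difference of NP-40 vs SDS log2 ratios) in this document: synchronized HeLa Kyoto cells (double thymidine block for G1/S, nocodazole release for mitosis), protein amounts in NP-40 versus SDS lysates quantified by mass spectrometry, three biological replicates.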
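For solubility in G1/S (NP-40 vs SDS abundance) in this document: HeLa Kyoto cells arrested at G1/S by double thymidine block, proteins quantified by TMT10plex mass spectrometry in mild NP-40 versus SDS extracts, three biological replicates.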
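For thermal stability score vs G1/S (z-score of summed log2 fold changes over temperatures) in this document: synchronized HeLa Kyoto cells, proteins quantified by TMT10plex mass spectrometry, three biological replicates, mitosis taken 0.5 h after nocodazole release, G1/S directly after double thymidine block.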

As to “MNPDLRRERDSASFNPELLTHILDGSPEKTRRRREIENMILNDPDFQHEDLNFLTRSQRYEVAVRKSAIMVKKMREFGIADPDEIMWFKKLHLVNFVEPVGLNYSMFIPTLLNQGTTAQKEKWLLSSKGLQIIGTYAQTEMGHGTHLRGLETTATYDPETQEFILNSPTVTSIKWWPGGLGKTSNHAIVLAQLITKGKCYGLHAFIVPIREIGTHKPLPGITVGDIGPKFGYDEIDNGYLKMDNHRIPRENMLMKYAQVKPDGTYVKPLSNKLTYGTMVFVRSFLVGEAARALSKACTIAIRYSAVRHQSEIKPGEPEPQILDFQTQQYKLFPLLATAYAFQFVGAYMKETYHRINEGIGQGDLSELPELHALTAGLKAFTSWTANTGIEACRMACGGHGYSHCSGLPNIYVNFTPSCTFEGENTVMMLQTARFLMKSYDQVHSGKLVCGMVSYLNDLPSQRIQPQQVAVWPTMVDINSPESLTEAYKLRAARLVEIAAKNLQKEVIHRKSKEVAWNLTSVDLVRASEAHCHYVVVKLFSEKLLKIQDKAIQAVLRSLCLLYSLYGISQNAGDFLQGSIMTEPQITQVNQRVKELLTLIRSDAVALVDAFDFQDVTLGSVLGRYDGNVYENLFEWAKNSPLNKAEVHESYKHLKSLQSKL [ACOX1]”, in the data set with HeLa Kyoto [1], the “solubility in G1/S (log2)” value was found to be 0.331. For the same sequence, the melting temperature amounted to 55.9 °C in the data set with HeLa Kyoto [2] (cell cycle stage: G1/S) and 58.3 °C in the data set on HeLa Kyoto [2] (cell cycle stage: mitosis). Moreover, the “solubility change mitosis (log2)” value with HeLa Kyoto [3] is -0.212. The results for the thermal stability score with HeLa Kyoto [4] (setting [5]) and in the data set on HeLa Kyoto [4] (cell cycle stage: mitosis) were -1.6 and -3.2, respectively.

In the case of “MNPESSIFIEDYLKYFQDQVSRENLLQLLTDDEAWNGFVAAAELPRDEADELRKALNKLASHMVMKDKNRHDKDQQHRQWFLKEFPRLKRELEDHIRKLRALAEEVEQVHRGTTIANVVSNSVGTTSGILTLLGLGLAPFTEGISFVLLDTGMGLGAAAAVAGITCSVVELVNKLRARAQARNLDQSGTNVAKVMKEFVGGNTPNVLTLVDNWYQVTQGIGRNIRAIRRARANPQLGAYAPPPHVIGRISAEGGEQVERVVEGPAQAMSRGTMIVGAATGGILLLLDVVSLAYESKHLLEGAKSESAEELKKRAQELEGKLNFLTKIHEMLQPGQDQ [APOL2]”, the “solubility in G1/S (log2)” value in the data set on HeLa Kyoto [1] is 0.309. Besides, the figures for the melting temperature in the data set on HeLa Kyoto [2] (cell cycle stage: G1/S) and with HeLa Kyoto [2] (cell cycle stage: mitosis) were 50 °C and 50.8 °C, respectively. Further, the “solubility change mitosis (log2)” value with HeLa Kyoto [3] amounted to 0.0238. The values for the thermal stability score in the data set on HeLa Kyoto [4] (setting [5]) and in the data set with HeLa Kyoto [4] (cell cycle stage: mitosis) were 4.12 and 3.26, respectively.

In the case of “MNRGFSRKSHTFLPKIFFRKMSSSGAKDKPELQFPFLQDEDTVATLLECKTLFILRGLPGSGKSTLARVIVDKYRDGTKMVSADAYKITPGARGAFSEEYKRLDEDLAAYCRRRDIRILVLDDTNHERERLEQLFEMADQYQYQVVLVEPKTAWRLDCAQLKEKNQWQLSADDLKKLKPGLEKDFLPLYFGWFLTKKSSETLRKAGQVFLEELGNHKAFKKELRQFVPGDEPREKMDLVTYFGKRPPGVLHCTTKFCDYGKAPGAEEYAQQDVLKKSYSKAFTLTISALFVTPKTTGARVELSEQQLQLWPSDVDKLSPTDNLPRGSRAHITLGCAADVEAVQTGLDLLEILRQEKGGSRGEEVGELSRGKLYSLGNGRWMLTLAKNMEVRAIFTGYYGKGKPVPTQGSRKGGALQSCTII [CNP]”, the “solubility in G1/S (log2)” value with HeLa Kyoto [1] stood at 0.107. For the same sequence, the melting temperature turned out to be 50.6 °C in the data set with HeLa Kyoto [2] (cell cycle stage: G1/S) and 50.3 °C with HeLa Kyoto [2] (cell cycle stage: mitosis). The “solubility change mitosis (log2)” value in the data set with HeLa Kyoto [3] was -0.00285. The thermal stability score with HeLa Kyoto [4] (setting [5]) amounted to 1.08; in the data set on HeLa Kyoto [4] (cell cycle stage: mitosis), 0.579.

As to “MNSIKNVPARVLSRRPGHSLEAEREQFDKTQAISISKAINTQEAPVKEKHARRIILGTHHEKGAFTFWSYAIGLPLPSSSILSWKFCHVLHKVLRDGHPNVLHDCQRYRSNIREIGDLWGHLHDRYGQLVNVYTKLLLTKISFHLKHPQFPAGLEVTDEVLEKAAGTDVNNIFQLTVEMFDYMDCELKLSESVFRQLNTAIAVSQMSSGQCRLAPLIQVIQDCSHLYHYTVKLLFKLHSCLPADTLQGHRDRFHEQFHSLRNFFRRASDMLYFKRLIQIPRLPEGPPNFLRASALAEHIKPVVVIPEEAPEDEEPENLIEISTGPPAGEPVVVADLFDQTFGPPNGSVKDDRDLQIESLKREVEMLRSELEKIKLEAQRYIAQLKSQVNALEGELEEQRKQKQKALVDNEQLRHELAQLRAAQLEGERSQGLREEAERKASATEARYNKLKEKHSELVHVHAELLRKNADTAKQLTVTQQSQEEVARVKEQLAFQVEQVKRESELKLEEKSDQLEKLKRELEAKAGELARAQEALSHTEQSKSELSSRLDTLSAEKDALSGAVRQREADLLAAQSLVRETEAALSREQQRSSQEQGELQGRLAERESQEQGLRQRLLDEQFAVLRGAAAEAAGILQDAVSKLDDPLHLRCTSSPDYLVSRAQEALDAVSTLEEGHAQYLTSLADASALVAALTRFSHLAADTIINGGATSHLAPTDPADRLIDTCRECGARALELMGQLQDQQALRHMQASLVRTPLQGILQLGQELKPKSLDVRQEELGAVVDKEMAATSAAIEDAVRRIEDMMNQARHASSGVKLEVNERILNSCTDLMKAIRLLVTTSTSLQKEIVESGRGAATQQEFYAKNSRWTEGLISASKAVGWGATQLVEAADKVVLHTGKYEELIVCSHEIAASTAQLVAASKVKANKHSPHLSRLQECSRTVNERAANVVASTKSGQEQIEDRDTMDFSGLSLIKLKKQEMETQVRVLELEKTLEAERMRLGELRKQHYVLAGASGSPGEEVAIRPSTAPRSVTTKKPPLAQKPSVAPRQDHQLDKKDGIYPAQLVNY [HIP1R]”, the “solubility in G1/S (log2)” value in the data set on HeLa Kyoto [1] was -0.0581. In addition, the melting temperature in the data set with HeLa Kyoto [2] (cell cycle stage: G1/S) was found to be 50 °C; with HeLa Kyoto [2] (cell cycle stage: mitosis) it was 49.5 °C. Further, the “solubility change mitosis (log2)” value in the data set with HeLa Kyoto [3] was -0.0177. The thermal stability score was -0.263 in the data set with HeLa Kyoto [4] (setting [5]) and 0.371 in the data set with HeLa Kyoto [4] (cell cycle stage: mitosis).

Turning to “MNSMKTEENKSFSAMEDDQRTRPEVSKDTVMKQTHADTPVDHCLSGIRKCSSTFKLKSEVNKHETALEMQNPNLNNKECCFTFTLNGNSRKLDRSVFTAYGKPSESIYSALSANDYFSERIKNQFNKNIIVYEEKTIDGHINLGMPLKCLPSDSHFKITFGQRKSSKEDGHILRQCENPNMECILFHVVAIGRTRKKIVKINELHEKGSKLCIYALKGETIEGALCKDGRFRSDIGEFEWKLKEGHKKIYGKQSMVDEVSGKVLEMDISKKKALQQKDIHKKIKQNESATDEINHQSLIQSKKKVHKPKKDGETKDVEHSREQILPPQDLSHYIKDKTRQTIPRIRNYYFCSLPRKYRQINSQVRRRPHLGRRYAINLDVQKEAINLLKNYQTLNEAIMHQYPNFKEEAQWVRKYFREEQKRMNLSPAKQFNIYKKDFGKMTANSVSVATCEQLTYYSKSVGFMQWDNNGNTGNATCFVFNGGYIFTCRHVVHLMVGKNTHPSLWPDIISKCAKVTFTYTEFCPTPDNWFSIEPWLKVSNENLDYAILKLKENGNAFPPGLWRQISPQPSTGLIYLIGHPEGQIKKIDGCTVIPLNERLKKYPNDCQDGLVDLYDTTSNVYCMFTQRSFLSEVWNTHTLSYDTCFSDGSSGSPVFNASGKLVALHTFGLFYQRGFNVHALIEFGYSMDSILCDIKKTNESLYKSLNDEKLETYDEEKGKQESSLQDHQIEPMEC [FAM111B]”, the “solubility in G1/S (log2)” value with HeLa Kyoto [1] is -0.274. Further, the melting temperature with HeLa Kyoto [2] (cell cycle stage: G1/S) came to 46.9 °C; in the data set with HeLa Kyoto [2] (cell cycle stage: mitosis) it was 50.3 °C. The “solubility change mitosis (log2)” value with HeLa Kyoto [3] is -7.96e-05. The thermal stability score with HeLa Kyoto [4] (setting [5]) amounted to 2.69; in the data set on HeLa Kyoto [4] (cell cycle stage: mitosis), 4.09.

Source of the values: the supplement of paper PMC5998384.
